Experimental data as given in PMC5798343.

How the values were obtained:
Test in all cases: SEC
[1] = biological target: ΔNp63α R279H in the V603D background
ΔNp63α R304Q/V603D = biological target: ΔNp63α R304Q/V603D
ΔNp63α V603D = biological target: ΔNp63α V603D

Work on “ΔNp63α R279H in the V603D background (natural protein)” yielded a stoichiometry N [1] of 4.
For ΔNp63α R304Q/V603D (natural protein), the stoichiometry N (ΔNp63α R304Q/V603D) was 4.
In the case of ΔNp63α V603D (natural protein), the stoichiometry N (ΔNp63α V603D) is reported as 4.
